The supplement of paper PMC12764529
± gives the half width of the 95% confidence interval.

Assays:
[1] = folding stability dG unfold from trypsin proteolysis; higher = more stable
Outline: (§1)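 Digests were run with trypsin and chymotrypsin at 11 concentrations in threefold dilutions, plus a no-protease condition, on designed mini-proteins in a PA-tagged cDNA display construct. The mini-proteins were under 80 residues, had no cysteine, and were kept only when AlphaFold2 dimer inter-PAE was above 15. After sequencing, Bayesian fitting of the counts gave K50, from which unfolding free energy was derived against a sequence-predicted unfolded-state K50 and a shared folded-state K50, per protease or combined.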

[2] = folding stability dG unfold from chymotrypsin proteolysis; higher = more stable
Outline: as §1

[3] = folding stability dG unfold (combined trypsin and chymotrypsin); higher = more stable
Outline: as §1

Row | Sequence | folding stability dG unfold [1] [kcal/mol] | folding stability dG unfold [2] [kcal/mol] | folding stability dG unfold [3] [kcal/mol]
1 | SAGGRLVEAIREANKQGKPMSREEIKDKIKDAIREQNEENGGKIPEIEITDIHWNPDNGYVPIEIKVSAGGS [r16_365_TrROS] | -0.152 ± 0.2 | -0.62 ± 0.27 | -0.561 ± 0.25
2 | SAGGRRKIEFEVWIPMDKDGEITPNEIIEEAREIAEALPNFDNVEIEEISIQHHPDGWTRYNITIEVPSAGG [r13_462_TrROS] | 2.16 ± 0.16 | 2.42 ± 0.058 | 2.31 ± 0.31
3 | SAGGRVRLEERVLPDGRRVLVVHLPDRPLEVVIPLEGLALPPDQPVLVRGEGGVRELPIGDLLPEALFSAGG [r13_97_TrMRF] | 1.06 ± 0.011 | 0.658 ± 0.053 | 0.88 ± 0.036
4 | SAGGRYWKLTTPPDRPLRLVIEPVPLEDTPEEYGSRLYIPNTGKVYYFPLKYAQEILDLPWIERLEPVSAGG [r19_302_TrMRF] | 0.903 ± 0.096 | 0.343 ± 0.21 | 0.664 ± 0.11
5 | SAGGSAAEPVVLVFKTPESEALITVPPAFVQRVTVDPGGTVRRITVDLPDGTRTFLITDDSIFVDDSAGGSA [r15_598_TrMRF] | 0.753 ± 0.048 | 0.581 ± 0.12 | 0.709 ± 0.068
6 | SAGGSAAGAERVTYNYMIPNDGKWFMIRITIYRFEVKRDPEDNKYKLDLPPGDQLFINTEIMWFPNSAGGSA [r15_1040_TrROS] | 2.72 ± 0.12 | 4.14 ± 0.076 | 3.73 ± 0.24
7 | SAGGSAAIPLEFELPNGERVTVYYDPETGLFTVEVEVRFGNEKGEPPEVRFRFEVDSLVDLLDFLASAGGSA [r15_31_TrMRF] | 2.51 ± 0.13 | 3.88 ± 0.039 | 3.49 ± 0.093
8 | SAGGSAAITFPSDKTATVLSEEYDPVKKTTTVKMKVGNKEVTATLSPDGTVTIKLPDGKEETYPVGSAGGSA [r15_111_JUSTAS] | 1.18 ± 0.057 | 1.41 ± 0.016 | 1.35 ± 0.099
9 | SAGGSAALELVEEVSEFYDPNTGKKTTLVVARKDGKPILILIPPSGATVYDASNGNKLFEIPPELLSAGGSA [r15_85_JUSTAS] | 0.61 ± 0.03 | 1.16 ± 0.074 | 0.951 ± 0.065
10 | SAGGSAALVLSREEFDGEVLLTLRDPETGEELLARLTYVPEENLVRLETTFPDGSTTTSVLPASALSAGGSA [r15_1055_JUSTAS] | 1.794 ± 0.017 | 1.59 ± 0.059 | 1.75 ± 0.033
11 | SAGGSADEELLEKAKEALKKAEPPKIVVLNLPLPSGKELKVTLDPTTNKFTAEFPDGGSKTFDFPESAGGSA [r15_977_JUSTAS] | 1.05 ± 0.11 | 0.86 ± 0.096 | 0.858 ± 0.12
12 | SAGGSADIKIIKLPEKNELVILVPGEFDENVPLVLHDEGGPSWEVVDARVERVGDDLIITAKVRKSSAGGSA [r15_838_TrMRF] | 0.594 ± 0.037 | 0.701 ± 0.049 | 0.691 ± 0.099
13 | SAGGSADKITVRVMPSPDGMYRVKIWHPGKKREYWMNPDDPDKMLEEFADEINPDRPIKVEVEPYKSAGGSA [r15_925_TrROS] | -0.919 ± 0.87 | 0.913 ± 0.16 | 0.467 ± 0.18
14 | SAGGSADPDDKEQKIKVEIETYRLEDNGMEVTRIELEGHGMPIYIARFPDGRMFIFTANGELEQIPSAGGSA [r15_617_TrROS] | 1.97 ± 0.14 | 2.71 ± 0.059 | 2.41 ± 0.16
15 | SAGGSADPDSPYVIRFNKPYTTFSPDGTPIELTEDVLKRFKSEEEAKKAKEELEKKGAKVEPVEGSSAGGSA [r15_117_JUSTAS] | -0.767 ± 0.41 | 0.242 ± 0.31 | -0.159 ± 0.23
16 | SAGGSADPEKVKLIEVEVEVHVEYDPEKGTYTVKAEFPDLTLSFEVPADSIHPDEKFKAPVLILVLSAGGSA [r15_190_TrMRF] | 2.29 ± 0.091 | 3.7 ± 0.22 | 3.29 ± 0.24
17 | SAGGSADPGKPIQIAIMIHIDPEPGRIEIPIYIMDDNRVRPVSIEFTPAGTLKIEVGNKEIEIPIKSAGGSA [r15_507_TrROS] | 2.46 ± 0.17 | 2.01 ± 0.042 | 2.24 ± 0.16
18 | SAGGSADRVTVTVTVRVRDPATGEWREVTETVTVPAPLTLEITLPPGWRLRLTLEDGELRLEVEPESAGGSA [r2_109_TrROS_Hall] | 3.1 ± 0.096 | 4.26 ± 0.051 | 3.93 ± 0.063

Row | Sequence | folding stability dG unfold [1] [kcal/mol] | folding stability dG unfold [2] [kcal/mol] | folding stability dG unfold [3] [kcal/mol]
19 | SAGGSADTITIFFPGMPPEFAKEILEAILYEQGWKPKSVSTERHPEKGMHTIEVRFPNGRKITIMFSAGGSA [r15_958_TrROS] | 2.18 ± 0.06 | 3.1 ± 0.016 | 2.75 ± 0.052
20 | SAGGSADVKITEVHNPHRNPNGRPFFMVRIKWPDNGTHTIMMNPNDLDDLLAQLPPNWKIDEIHPISAGGSA [r15_339_TrROS] | 1.39 ± 0.025 | 1.68 ± 0.055 | 1.57 ± 0.049
21 | SAGGSAEEELLKAIKEALEKAKEGETVELEITLEDGSTLRITFDAENGKITVTLPNGEKLELTIEPSAGGSA [r15_977_TrROS_Hall] | 3.18 ± 0.19 | 4.37 ± 0.18 | 4.23 ± 0.16
22 | SAGGSAEEIARKLAEELAEEGEEVEVEVVEVEVEKVDGKEKVIRIRVKVKLPNGEELELELEIKLDELSAGG [r13_215_TrROS_Hall] | 2.38 ± 0.16 | 2.18 ± 0.28 | 2.43 ± 0.24
23 | SAGGSAEELLKKLKIVEVKEVDGKLYIEIEVDEPGLTVEEIKEILKELNLDVPIEVKEVVVVEEKESAGGSA [r15_599_TrROS_Hall] | 1.69 ± 0.14 | 2.16 ± 0.062 | 1.98 ± 0.11
24 | SAGGSAEIEIVIVVPEGASEEQVKALAKELKEELEKLLKVKDKDGKEKEVKIKKIKITVIVLPKEESAGGSA [r15_717_TrROS_Hall] | 2.37 ± 0.087 | 2.56 ± 0.064 | 2.42 ± 0.2
25 | SAGGSAEKEVYLVPFESEEKREKLREALLAEPGIEEVKETEDGVLLVTVPKGLSDKVEKAIKEAGISAGGSA [r15_834_TrMRF] | 1.21 ± 0.047 | 1.08 ± 0.025 | 1.17 ± 0.086
26 | SAGGSAEKVEIKVTYDKETGKVTVEIRVEVDLSEEQLKKLKELAEELGLEVEVTVEVRYEPPPPKESAGGSA [r15_542_TrROS_Hall] | 2.99 ± 0.38 | 2.18 ± 0.31 | 2.27 ± 0.49
27 | SAGGSAENDRFIVRVTIQMRNPGDGEKRTHTIPWFEFEPGKPAEEFAIDIADDFGIDNIDVEVYPLSAGGSA [r15_540_TrROS] | 1.35 ± 0.023 | 1.68 ± 0.026 | 1.57 ± 0.052
28 | SAGGSAEPLVYELPDGTVVLLPPTTAVVYHRLSDGRVVVVGLEVDDPPDPEKALARARAVVEALPDSAGGSA [r15_748_TrMRF] | 0.067 ± 0.25 | 1.6 ± 0.11 | 1.26 ± 0.13
29 | SAGGSAETIETVSSTFPVFSEDDKPVAVVKTYIFKFEDGELVLTEVFTPDGKPVAVKVASLDEFLNSAGGSA [r15_755_TrMRF] | 1.27 ± 0.025 | 1.7 ± 0.045 | 1.56 ± 0.071
30 | SAGGSAETLTITLTVKPGETVTIKALFKAEDGSVYAVTATFTAEDEGTVTITVTRLPPGVKDLADLSAGGSA [r15_909_TrROS_Hall] | 2.83 ± 0.099 | 4.71 ± 0.1 | 4.4 ± 0.16
31 | SAGGSAEVELVKVEVNPDGPYVKATFRIPGGGDVAVLVFDPDRPNTARLIVRPPNNEPIAEIELPLSAGGSA [r15_974_TrMRF] | 1.52 ± 0.046 | 1.83 ± 0.28 | 1.65 ± 0.2
32 | SAGGSAEWKEKALKMGAKEVKEDPANGYLYVTFPGPGRTIVIWKKEEDGTVTKVKTVSPSVKVEYKSAGGSA [r15_247_JUSTAS] | -0.292 ± 0.41 | 0.817 ± 0.27 | 0.491 ± 0.18
33 | SAGGSAGDKVVTVTATFTTTDPNGNEITIIAPITFLNGEGTAVIDAKAFNPTGELIAEATITVPIGSAGGSA [r15_967_TrMRF] | 1.69 ± 0.057 | 2.34 ± 0.028 | 2.07 ± 0.087
34 | SAGGSAGGAERIKNLLEDYGFELKDVEMDEPGSTKIHITPDNPSLRKDIKDKLPPGNVDSITDTSAGGSAGG [r6_84_TrROS] | -0.0811 ± 0.14 | 1.33 ± 0.12 | 0.882 ± 0.26
35 | SAGGSAGGAKPPKTVTVKVEVTNADGETQTRTVTLTNLPKDLKPGDTVTLPETGQTARIVEITPSAGGSAGG [r6_560_TrROS_Hall] | 3.27 ± 0.078 | 3.02 ± 0.097 | 3.17 ± 0.1
36 | SAGGSAGGDEIADKVKDLLRKHGWPVKEVEVTVMPHPPGRVYVMIEITMEHPGKKWTMEIMVEVSAGGSAGG [r6_533_TrROS] | 3.15 ± 0.14 | 4.79 ± 0.054 | 4.66 ± 0.13
